{
  "source": "the RNAGym collection of RNA variant scans (doi:10.7554/elife.80360)",
  "parents": {"B1": {"name": "HDV Ribozyme (parent)", "chain": "GGCCGGCAUGGUCCCAGCCUCCUCGCUGGCGCCGGCUGGGCAACAUUCCGAGGGGACCGUCCCCUCGGUAAUGGCGAAUGGGACCCA"}},
  "data": [
    {"variants_of": "B1", "experiment": "self-cleavage, relative activity (ratio to wild type); higher = more cleavage; co-transcriptional", "values": [
      {"variant": "GGCCGGCAUGGUCCCAGCCUUCUCGCUGGCGCCGGCUGGGCAACAUUCCGAGCGGACCGUCCCCUCGGUAAUGGCGAAUGGGACCCA", "note": "[C21U G53C]", "self-cleavage": 0.188},
      {"variant": "GGCCGGCAUGGUCCCAGCCUCCUCGCUGUCGCCGCCUGGGCAACAUUCCGAGGGGACCGUCCCCUCGGUAAUGGCGAAUGGGACCCA", "note": "[G29U G35C]", "self-cleavage": 0},
      {"variant": "GGCCGGCAUGGUGCCAGCCUCCUCGCUGGCGCCGGCUGGGCAACAUUCCGAGGGGACCGUCCCCUCGGUAAUGGAGAAUGGGACCCA", "note": "[C13G C75A]", "self-cleavage": 0},
      {"variant": "GGCCGGCCUGGUCCCAGCCUCCUCGCUGGCGCCGGCUGGGCAAGAUUCCGAGGGGACCGUCCCCUCGGUAAUGGCGAAUGGGACCCA", "note": "[A8C C44G]", "self-cleavage": 0.401},
      {"variant": "GGCCGGCAUGGUCCCAGCCUCCUCGCUGGCGCCGGCUGGGCAACAUUCCGAGGGGACCGUCCCUUCGGGAAUGGCGAAUGGGACCCA", "note": "[C64U U69G]", "self-cleavage": 1.07},
      {"variant": "GACCGGCAUGGUCCCAGCCUCCUCGCUGGCGCCGGCUGGGCUACAUUCCGAGGGGACCGUCCCCUCGGUAAUGGCGAAUGGGACCCA", "note": "[G2A A42U]", "self-cleavage": 0.0804},
      {"variant": "GGCUGGCAGGGUCCCAGCCUCCUCGCUGGCGCCGGCUGGGCAACAUUCCGAGGGGACCGUCCCCUCGGUAAUGGCGAAUGGGACCCA", "note": "[C4U U9G]", "self-cleavage": 0.782},
      {"variant": "GGCCGGCAUGGUCCCAGCCUCCUCGCUGGCGCCGGCUGGGCAAGAUUCCGAGGGGAGCGUCCCCUCGGUAAUGGCGAAUGGGACCCA", "note": "[C44G C57G]", "self-cleavage": 0.458},
      {"variant": "GGCCGGCAUGGUCCCAGCCUCCUCGCUGGCGCCGCCUGGGCAACAUUCCGAGGGGACCGUCCCCUCGGUAAUGGCGCAUGGGACCCA", "note": "[G35C A77C]", "self-cleavage": 0.0898},
      {"variant": "UGCCGGCAUGGUCCCAGCCUCCUCGCUGGCGCCGGCUGGGCAACAUUCCGAGGGGACCGUCCCCUCGGUAAUGACGAAUGGGACCCA", "note": "[G1U G74A]", "self-cleavage": 0.288},
      {"variant": "GGCCGGCAUGGUCCCAGCCUCCUCUCUGGCGCCGGCUGAGCAACAUUCCGAGGGGACCGUCCCCUCGGUAAUGGCGAAUGGGACCCA", "note": "[G25U G39A]", "self-cleavage": 0.0963},
      {"variant": "GGCCGGCAUGGUCCCAGCCUCCUCGCUGGCGCCGGCAGGGCAACAUUCCGAGGGGACCGUCCCCUCGGUCAUGGCGAAUGGGACCCA", "note": "[U37A A70C]", "self-cleavage": 0.0639},
      {"variant": "GGCCGGCAUGGUCCCAGCCUCCUCGCUGGCGCCGUCUGGGCAACAUUCCGAGGGGACCGUCCCCUCGGUAAUGGCGAAUGGGACCCU", "note": "[G35U A87U]", "self-cleavage": 0.451},
      {"variant": "GGCCGGCAUGGUCCCAUCCUCCUCGCUGGCGCCGGCUGGGCAACAUUCCGAGGGGACCGUCCCCUCGGUAAUGGCGCAUGGGACCCA", "note": "[G17U A77C]", "self-cleavage": 0.166},
      {"variant": "GGCCGGCAUGGUCCAAGCCUCCUCGCUGGCGCCGGCUGGGCAACAUUCCGAGGGGACCGUCCCCUCGGUAAUGGCGUAUGGGACCCA", "note": "[C15A A77U]", "self-cleavage": 0.302},
      {"variant": "GGCCGGCAUGGUCCCAGCCUCCUCGCUGGCGCCGGCUGGGCAACAUUCCGAGGUGACCGUCCCGUCGGUAAUGGCGAAUGGGACCCA", "note": "[G54U C64G]", "self-cleavage": 0.831},
      {"variant": "GUCCGGCAUGGACCCAGCCUCCUCGCUGGCGCCGGCUGGGCAACAUUCCGAGGGGACCGUCCCCUCGGUAAUGGCGAAUGGGACCCA", "note": "[G2U U12A]", "self-cleavage": 0.17},
      {"variant": "GGCCGGCAUGGUCCCAGCCUCCUCGCUCGCGCCGGCUGGGCAACAUUCCGAGGGGACCGUCCCCUCGGUAAUGGCGAAUGGGACCGA", "note": "[G28C C86G]", "self-cleavage": 0.0692},
      {"variant": "GGCCGGCAUGGUCCCAGCCUCCUCGCUGGCGCCGGCUGGGCAACAUUCCGAGGGGACCGUCCCCUCGGUAAUGGCAAAUGGCACCCA", "note": "[G76A G82C]", "self-cleavage": 0.214},
      {"variant": "GGCCGGCAUGGUCCCAGCCUCCUCGCUGGCGCCGGCUGGGCAACAUUCCGAGGGGACCGUCCCCUCGGUAAAGGCGAAUGGGACGCA", "note": "[U72A C85G]", "self-cleavage": 0.831},
      {"variant": "GGCCGGCAUGGUCCCAGCCUCCUCGCUGGCGCCGGCUGGGCAACAUUCCGAGGGGACGGUCCCCUCGGUAAUGGCGAAUGGGACCUA", "note": "[C58G C86U]", "self-cleavage": 1.25},
      {"variant": "GGCCGGCAUGGUCCCAGCCUCCUCGCGGGCGCCGUCUGGGCAACAUUCCGAGGGGACCGUCCCCUCGGUAAUGGCGAAUGGGACCCA", "note": "[U27G G35U]", "self-cleavage": 0.277},
      {"variant": "GGCCGGCAUGGUCCCCGCCUCCUCGCUGGCGCCGGCUGGGCAAUAUUCCGAGGGGACCGUCCCCUCGGUAAUGGCGAAUGGGACCCA", "note": "[A16C C44U]", "self-cleavage": 0.35},
      {"variant": "GGCCGGCAUGGUCCCAGCCUCCUCGCUGGCGCCGGCUGGGCAACAUCCCGAGGGGACCGUCACCUCGGUAAUGGCGAAUGGGACCCA", "note": "[U47C C62A]", "self-cleavage": 1.06},
      {"variant": "GGCCGGCAUGGUUCCAGCCUCCUCGCUGGCGCCGGCUGGGCAACAUUCCGAGGGGACCGUCCCCUCGGUAAUGGCGUAUGGGACCCA", "note": "[C13U A77U]", "self-cleavage": 0.155},
      {"variant": "GGCCGGCAUGGUCCCAGCCUCCUCGCUGGCGCCGGCUGGGCAACAUUCCGACGGGACCGUCCCCUUGGUAAUGGCGAAUGGGACCCA", "note": "[G52C C66U]", "self-cleavage": 0.965},
      {"variant": "GGCCGGCAUGGUCCCAGCCUCCUCGCUGACGCCGGCAGGGCAACAUUCCGAGGGGACCGUCCCCUCGGUAAUGGCGAAUGGGACCCA", "note": "[G29A U37A]", "self-cleavage": 0.136},
      {"variant": "GGCCGGCAUGGUCCCAGCCUCCUCGCUGGCGCCGGCUGGGCAACAUUCCGACGGGACCGUCCCCUCGGUAAUGGCGAAUGUGACCCA", "note": "[G52C G81U]", "self-cleavage": 0.579},
      {"variant": "GGCCGGCAUGGUCCCAGCCUCCUCGCUGGCGCCGUCUAGGCAACAUUCCGAGGGGACCGUCCCCUCGGUAAUGGCGAAUGGGACCCA", "note": "[G35U G38A]", "self-cleavage": 0.0702},
      {"variant": "GGCCGGCAUGGUCCCCGCCUCCUCGCUGGCGCCGGCUGGGCAACAUUCCGAGGGCACCGUCCCCUCGGUAAUGGCGAAUGGGACCCA", "note": "[A16C G55C]", "self-cleavage": 1.01},
      {"variant": "GGCCGGCAUGGUCCCAGCCUCCUCGCUGGCGCCGGCUGGGCAAGAUUCCGAGGGGACCGUCCCCUCGGUAAUGGCGGAUGGGACCCA", "note": "[C44G A77G]", "self-cleavage": 0.665},
      {"variant": "GGCCGGCAUGGUCCCAGCCUCCUCGAUGGCGCCGGCUGGGCAACAGUCCGAGGGGACCGUCCCCUCGGUAAUGGCGAAUGGGACCCA", "note": "[C26A U46G]", "self-cleavage": 0.86}
    ]}
  ]
}
